Laboratory results published in IntAct's records for PubMed 25114243.

B1: Ras-related protein Rab-5C (Homo sapiens), P51148 (parent)
chain: MAGRGGAARPNGPAAGNKICQFKLVLLGESAVGKSSLVLRFVKGQFHEYQESTIGAAFLTQTVCLDDTTVKFEIWDTAGQERYHSLAPMYYRGAQAAIVVYDITNTDTFARAKNWVKELQRQASPNIVIALAGNKADLASKRAVEFQEAQAYADDNSLLFMETSAKTAMNVNEIFMAIAKKLPKNEPQNATGAPGRNRGVDLQENNPASRSQCCSN
partner: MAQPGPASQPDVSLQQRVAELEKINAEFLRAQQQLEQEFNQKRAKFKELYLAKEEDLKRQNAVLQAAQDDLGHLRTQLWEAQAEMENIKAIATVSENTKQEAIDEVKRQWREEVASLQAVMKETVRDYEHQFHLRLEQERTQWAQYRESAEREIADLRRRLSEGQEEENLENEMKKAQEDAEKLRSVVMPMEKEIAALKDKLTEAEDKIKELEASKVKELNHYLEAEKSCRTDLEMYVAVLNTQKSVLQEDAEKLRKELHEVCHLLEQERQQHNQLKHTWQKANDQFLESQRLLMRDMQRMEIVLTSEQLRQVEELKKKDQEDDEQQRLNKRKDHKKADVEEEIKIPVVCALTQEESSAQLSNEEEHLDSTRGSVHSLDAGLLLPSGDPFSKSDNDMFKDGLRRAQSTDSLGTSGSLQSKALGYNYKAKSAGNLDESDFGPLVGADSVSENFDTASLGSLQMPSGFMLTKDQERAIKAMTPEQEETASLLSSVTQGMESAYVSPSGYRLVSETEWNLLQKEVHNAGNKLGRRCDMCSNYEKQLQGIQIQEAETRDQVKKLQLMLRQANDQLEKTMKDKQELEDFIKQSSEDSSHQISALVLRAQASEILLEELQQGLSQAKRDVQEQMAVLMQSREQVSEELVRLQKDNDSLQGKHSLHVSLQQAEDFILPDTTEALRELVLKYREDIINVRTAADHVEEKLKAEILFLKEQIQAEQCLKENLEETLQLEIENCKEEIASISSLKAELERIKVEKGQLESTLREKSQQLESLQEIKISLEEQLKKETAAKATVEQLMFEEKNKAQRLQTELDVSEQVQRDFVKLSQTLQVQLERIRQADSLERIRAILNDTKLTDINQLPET
B2: Ras-related protein Rab-5C (Homo sapiens), P51148 (parent)
chain: B1 chain
partner: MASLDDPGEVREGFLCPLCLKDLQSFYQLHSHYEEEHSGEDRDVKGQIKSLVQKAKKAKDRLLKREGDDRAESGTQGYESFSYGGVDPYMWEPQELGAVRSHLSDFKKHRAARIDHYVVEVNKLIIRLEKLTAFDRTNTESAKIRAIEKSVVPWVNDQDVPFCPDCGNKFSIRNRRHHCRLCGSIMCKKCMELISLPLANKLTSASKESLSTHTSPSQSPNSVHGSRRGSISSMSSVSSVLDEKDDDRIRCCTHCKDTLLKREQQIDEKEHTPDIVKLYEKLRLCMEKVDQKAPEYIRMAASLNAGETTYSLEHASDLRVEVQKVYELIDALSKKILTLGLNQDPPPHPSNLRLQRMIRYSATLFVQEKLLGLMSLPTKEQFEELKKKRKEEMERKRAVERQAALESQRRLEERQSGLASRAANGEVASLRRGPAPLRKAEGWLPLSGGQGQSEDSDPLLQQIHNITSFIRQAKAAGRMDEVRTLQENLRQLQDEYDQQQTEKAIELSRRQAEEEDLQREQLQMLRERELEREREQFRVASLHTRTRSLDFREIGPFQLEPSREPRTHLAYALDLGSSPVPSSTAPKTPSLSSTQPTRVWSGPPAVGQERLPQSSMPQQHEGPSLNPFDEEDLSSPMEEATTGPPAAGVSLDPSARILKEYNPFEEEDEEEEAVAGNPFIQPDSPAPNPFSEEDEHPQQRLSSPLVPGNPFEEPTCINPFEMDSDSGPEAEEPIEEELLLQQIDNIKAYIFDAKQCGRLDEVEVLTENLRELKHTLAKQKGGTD
B3: Ras-related protein Rab-5C (Homo sapiens), P51148 (parent)
chain: B1 chain

Variants of: B1
Details: with rabe1_human RABEP1, Q15276

Variant	effect of a mutation on the interaction
R92A	with no effect

Variants of: B2
Details: with rbns5_human RBSN

Variant	effect of a mutation on the interaction
R92A	decreasing interaction

Variants of: B3
Details: with eea1_human EEA1, Q15075
eea1_human EEA1, Q15075, sequence (Q15075 whole entry): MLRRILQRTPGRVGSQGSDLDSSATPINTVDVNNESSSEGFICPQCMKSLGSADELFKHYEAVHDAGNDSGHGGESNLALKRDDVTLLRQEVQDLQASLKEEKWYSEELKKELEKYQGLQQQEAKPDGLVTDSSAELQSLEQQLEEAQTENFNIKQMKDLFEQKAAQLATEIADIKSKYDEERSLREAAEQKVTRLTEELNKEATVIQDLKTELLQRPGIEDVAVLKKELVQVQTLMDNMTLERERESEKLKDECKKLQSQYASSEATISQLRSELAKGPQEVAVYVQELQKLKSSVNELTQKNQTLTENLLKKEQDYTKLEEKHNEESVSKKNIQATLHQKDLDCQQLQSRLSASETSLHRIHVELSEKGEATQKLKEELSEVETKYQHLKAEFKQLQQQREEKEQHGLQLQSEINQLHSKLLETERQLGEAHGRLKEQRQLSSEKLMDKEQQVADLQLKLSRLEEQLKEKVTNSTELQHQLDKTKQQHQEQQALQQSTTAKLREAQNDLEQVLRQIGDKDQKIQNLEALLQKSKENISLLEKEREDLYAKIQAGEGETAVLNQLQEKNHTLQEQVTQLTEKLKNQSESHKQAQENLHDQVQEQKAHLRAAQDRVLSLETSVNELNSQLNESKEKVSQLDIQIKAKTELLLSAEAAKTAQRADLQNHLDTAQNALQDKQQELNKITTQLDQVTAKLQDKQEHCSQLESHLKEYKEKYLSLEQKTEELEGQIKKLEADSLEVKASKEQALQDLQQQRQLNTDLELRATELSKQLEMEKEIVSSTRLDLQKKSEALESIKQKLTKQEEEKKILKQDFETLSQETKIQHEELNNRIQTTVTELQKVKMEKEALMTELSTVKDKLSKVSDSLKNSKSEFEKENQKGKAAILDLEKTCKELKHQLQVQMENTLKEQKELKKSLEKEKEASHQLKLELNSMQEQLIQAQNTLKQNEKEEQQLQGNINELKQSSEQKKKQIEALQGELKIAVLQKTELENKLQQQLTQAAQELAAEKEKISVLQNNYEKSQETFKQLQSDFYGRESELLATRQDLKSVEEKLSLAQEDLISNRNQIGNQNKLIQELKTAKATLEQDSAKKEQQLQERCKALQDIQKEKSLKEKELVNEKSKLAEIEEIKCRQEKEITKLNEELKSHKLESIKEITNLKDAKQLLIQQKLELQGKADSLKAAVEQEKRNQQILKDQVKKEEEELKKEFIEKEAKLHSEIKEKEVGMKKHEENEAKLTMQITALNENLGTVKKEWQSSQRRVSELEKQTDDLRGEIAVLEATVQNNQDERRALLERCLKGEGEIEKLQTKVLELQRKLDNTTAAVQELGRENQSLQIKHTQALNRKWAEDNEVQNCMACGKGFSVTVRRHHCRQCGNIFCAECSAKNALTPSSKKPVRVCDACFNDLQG

Variant	effect of a mutation on the interaction
R92A	decreasing interaction
